The results in this text go back to ChEMBL document CHEMBL3865823, “Ameliorative effects of amide derivatives of 1,3,4-thiadiazoles on scopolamine induced cognitive dysfunction” (Eur J Med Chem, 2016).

Holding throughout (assay type): tissue-based
Compound in data set [1]: CC(CC(=O)Nc1nnc(-c2ccccc2)s1)CC(C)(C)C
In words: (§1) Inhibition of albino mouse brain AChE assessed as Km for substrate using acetylthiocholine iodide as substrate measured for 2 mins by Ellmans method. On the technique in general: DTNB colorimetry detects thiols as they appear.

Compound in data set [2]: O=C(Nc1nnc(-c2ccccc2Cl)s1)c1cccc(CCl)c1
The description is as §1.

Compound in data set [3]: O=C(Nc1nnc(-c2ccccc2)s1)c1cccc(CCl)c1
The description is as §1.

Compound in data set [4]: CC(=O)Oc1cccc(C(=O)Nc2nnc(-c3ccccc3)s2)c1
The description is as §1.

Compound in data set [5]: CC(=O)Oc1cccc(C(=O)Nc2nnc(-c3ccc(C)cc3)s2)c1
The description is as §1.

Compound in data set [6]: O=C(Nc1nnc(Cc2ccccc2)s1)c1cccc(CCl)c1
The data set is described as §1.

Compound in data set [7]: Cc1ccc(-c2nnc(NC(=O)c3cc(C(F)(F)F)cc(C(F)(F)F)c3)s2)cc1
Described as §1.

Compound in data set [8]: O=C(Nc1nnc(-c2ccccc2Cl)s1)c1cc(C(F)(F)F)cc(C(F)(F)F)c1
The data set is described as §1.

Compound in data set [9]: Cc1ccc(-c2nnc(NC(=O)CC(C)CC(C)(C)C)s2)cc1
The data set is described as §1.

Compound in data set [10]: Cc1ccc(-c2nnc(NC(=O)c3cccc(CCl)c3)s2)cc1
The description is as §1.

Compound in data set [11]: CC(CC(=O)Nc1nnc(Cc2ccccc2)s1)CC(C)(C)C
Described as §1.

Compound in data set [12]: CC(=O)Oc1cccc(C(=O)Nc2nnc(Cc3ccccc3)s2)c1
The description is as §1.

Compound in data set [13]: CC(=O)Oc1cccc(C(=O)Nc2nnc(-c3ccccc3Cl)s2)c1
Described as §1.

Compound in data set [14]: CC(CC(=O)Nc1nnc(-c2cccc(Cl)c2)s1)CC(C)(C)C
Described as §1.

B1: Acetylcholinesterase (Mus musculus), P21836 (protein)
chain: MRPPWYPLHTPSLAFPLLFLLLSLLGGGARAEGREDPQLLVRVRGGQLRGIRLKAPGGPVSAFLGIPFAEPPVGSRRFMPPEPKRPWSGVLDATTFQNVCYQYVDTLYPGFEGTEMWNPNRELSEDCLYLNVWTPYPRPASPTPVLIWIYGGGFYSGAASLDVYDGRFLAQVEGAVLVSMNYRVGTFGFLALPGSREAPGNVGLLDQRLALQWVQENIAAFGGDPMSVTLFGESAGAASVGMHILSLPSRSLFHRAVLQSGTPNGPWATVSAGEARRRATLLARLVGCPPGGAGGNDTELIACLRTRPAQDLVDHEWHVLPQESIFRFSFVPVVDGDFLSDTPEALINTGDFQDLQVLVGVVKDEGSYFLVYGVPGFSKDNESLISRAQFLAGVRIGVPQASDLAAEAVVLHYTDWLHPEDPTHLRDAMSAVVGDHNVVCPVAQLAGRLAAQGARVYAYIFEHRASTLTWPLWMGVPHGYEIEFIFGLPLDPSLNYTTEERIFAQRLMKYWTNFARTGDPNDPRDSKSPQWPPYTTAAQQYVSLNLKPLEVRRGLRAQTCAFWNRFLPKLLSATDTLDEAERQWKAEFHRWSSYMVHWKNQFDHYSKQERCSDL
As to B1, the Km – broadly, the substrate concentration at which the rate is half of its maximum – came to 9.09 µM in data set [1]; 15.3 µM in [2]; 16.4 µM in data set [3]; 1.37 µM in data set [4]; 8.01 µM in data set [5]; 12.9 µM in data set [6]. Further, the Km in [7] was 4.89 µM; in data set [8], 2.35 µM; in data set [9], 7.86 µM; in data set [10], 1.9 µM; in [11], 24.9 µM; in [12], 4.47 µM. For the same protein, the Km in data set [13] was found to be 16 µM; in data set [14] it was 17.7 µM.
